Among the data in publication PMC6555819, “Comprehensive study of nuclear receptor DNA binding provides a revised framework for understanding receptor specificity” are binding signal values, retold here.

Residue numbers refer to the chain shown, from its start.

B1: NRC3_wobSeed120_DR4_A17G_o1 (dsDNA)
DNA 1: GCCCGAGTAGGTTACGGGGGGGCATTCAGTGCGAATGCGATTGACAGCGTAGAATGAAGG
DNA 2: CCTTCATTCTACGCTGTCAATCGCATTCGCACTGAATGCCCCCCCGTAACCTACTCGGGC
B2: NRC3_wobSeed9_DR0_G21T_o1 (dsDNA)
DNA 1: GCATCTCTAGGTAAAGTTCATTGAAAGATCGATAGAGCGATTGACAGCGTAGAATGAAGG
DNA 2: CCTTCATTCTACGCTGTCAATCGCTCTATCGATCTTTCAATGAACTTTACCTAGAGATGC
B3: NRC3_wobSeed123_DR5_C4G_o1 (dsDNA)
DNA 1: GCCGTCGGAGGACAACAGGAGGTCAGAGCTGCCAGAGCGATTGACAGCGTAGAATGAAGG
DNA 2: CCTTCATTCTACGCTGTCAATCGCTCTGGCAGCTCTGACCTCCTGTTGTCCTCCGACGGC
B4: NRC3_wobSeed123_DR5_A15C_o1 (dsDNA)
DNA 1: B3 DNA 1 with G4C, A15C
DNA 2: B3 DNA 2 with T46G, C57G
B5: NRC3_wobSeed115_DR4_A23C_o1 (dsDNA)
DNA 1: GCACAGACAGGTGAGTGAAGGTCACTCAGCTGGACGGCGATTGACAGCGTAGAATGAAGG
DNA 2: CCTTCATTCTACGCTGTCAATCGCCGTCCAGCTGAGTGACCTTCACTCACCTGTCTGTGC
B6: NRC3_wobSeed65_DR2_T8A_o1 (dsDNA)
DNA 1: GCATATGAAGGTTATCGGGTCATTCAGTTTGCGCATGCGATTGACAGCGTAGAATGAAGG
DNA 2: CCTTCATTCTACGCTGTCAATCGCATGCGCAAACTGAATGACCCGATAACCTTCATATGC
B7: NRC3_wobSeed89_DR3_G18A_o1 (dsDNA)
DNA 1: GCCTATGTAGGTTAAGGAGGTCATTCAGTTTGAAAGGCGATTGACAGCGTAGAATGAAGG
DNA 2: CCTTCATTCTACGCTGTCAATCGCCTTTCAAACTGAATGACCTCCTTAACCTACATAGGC
B8: NRC3_wobSeed62_DR2_T20G_o1 (dsDNA)
DNA 1: GCTCTGCTAGGTCAGTTGGGCAGCTAACGAGCTGCCGCGATTGACAGCGTAGAATGAAGG
DNA 2: CCTTCATTCTACGCTGTCAATCGCGGCAGCTCGTTAGCTGCCCAACTGACCTAGCAGAGC
B9: NRC3_wobSeed112_DR4_C22G_o1 (dsDNA)
DNA 1: GCTAGCCTAGGTCAGATCGGGGCAGTATACGCTATAGCGATTGACAGCGTAGAATGAAGG
DNA 2: CCTTCATTCTACGCTGTCAATCGCTATAGCGTATACTGCCCCGATCTGACCTAGGCTAGC
B10: NRC3_wobSeed106_DR4_T28A_o1 (dsDNA)
DNA 1: GCCTCGAAAGGTCGGTTGAGGTGAGTAAACGGATAAGCGATTGACAGCGTAGAATGAAGG
DNA 2: CCTTCATTCTACGCTGTCAATCGCTTATCCGTTTACTCACCTCAACCGACCTTTCGAGGC
B11: NRC3_wobSeed61_DR2_T12G_o1 (dsDNA)
DNA 1: GCCGTCCAAGGGCAGCAGGTCAGTGAAAGCGACGTGGCGATTGACAGCGTAGAATGAAGG
DNA 2: CCTTCATTCTACGCTGTCAATCGCCACGTCGCTTTCACTGACCTGCTGCCCTTGGACGGC
B12: NRC3_wobSeed51_DR2_C4G_o1 (dsDNA)
DNA 1: GCCGTCGGAGGACAGAAGGTCAGAGCTGTCCGCTTTGCGATTGACAGCGTAGAATGAAGG
DNA 2: CCTTCATTCTACGCTGTCAATCGCAAAGCGGACAGCTCTGACCTTCTGTCCTCCGACGGC
B13: NRC3_wobSeed12_DR0_T8G_o1 (dsDNA)
DNA 1: GCCCGACGGGGGCAAGGTTACCATAACGCACAGCCAGCGATTGACAGCGTAGAATGAAGG
DNA 2: CCTTCATTCTACGCTGTCAATCGCTGGCTGTGCGTTATGGTAACCTTGCCCCCGTCGGGC

The target in the data set is RARb:RXRa (Homo sapiens, UniProt P10826;P19793 full;full). As to the kind of experiment: no ligand; PBM; 270 nM : 90 nM RXRa; PBS pH 7.4, 2% milk, 0.02% Triton X-100, 1 mM DTT, BSA, 0.4 mg/ml salmon testes DNA. The settings on record: tags: His kept;His cleaved; copies: 1;1; label: surface-attached array probe. Summed up: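 Ligand-free nuclear receptor dimers were bound for 1 h to custom Agilent 4×180K protein-binding microarrays. Detection used antibodies against each partner (one per run). Binding z-scores rest on regression-normalized fluorescence, with random background probes as the reference.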
RARb:RXRa, sequence (P10826 whole entry, chain 1 of 2): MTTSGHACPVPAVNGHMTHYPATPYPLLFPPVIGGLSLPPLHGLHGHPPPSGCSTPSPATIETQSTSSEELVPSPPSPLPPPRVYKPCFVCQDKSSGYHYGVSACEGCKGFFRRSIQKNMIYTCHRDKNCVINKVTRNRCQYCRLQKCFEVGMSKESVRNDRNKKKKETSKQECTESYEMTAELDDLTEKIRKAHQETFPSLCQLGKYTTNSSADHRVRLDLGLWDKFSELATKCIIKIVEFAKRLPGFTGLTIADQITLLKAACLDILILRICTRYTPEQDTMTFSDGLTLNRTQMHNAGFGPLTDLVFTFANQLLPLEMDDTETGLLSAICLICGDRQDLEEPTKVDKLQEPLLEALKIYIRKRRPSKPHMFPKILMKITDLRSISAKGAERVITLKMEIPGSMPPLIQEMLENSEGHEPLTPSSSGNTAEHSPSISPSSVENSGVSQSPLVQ
RARb:RXRa, sequence (P19793 whole entry, chain 2 of 2): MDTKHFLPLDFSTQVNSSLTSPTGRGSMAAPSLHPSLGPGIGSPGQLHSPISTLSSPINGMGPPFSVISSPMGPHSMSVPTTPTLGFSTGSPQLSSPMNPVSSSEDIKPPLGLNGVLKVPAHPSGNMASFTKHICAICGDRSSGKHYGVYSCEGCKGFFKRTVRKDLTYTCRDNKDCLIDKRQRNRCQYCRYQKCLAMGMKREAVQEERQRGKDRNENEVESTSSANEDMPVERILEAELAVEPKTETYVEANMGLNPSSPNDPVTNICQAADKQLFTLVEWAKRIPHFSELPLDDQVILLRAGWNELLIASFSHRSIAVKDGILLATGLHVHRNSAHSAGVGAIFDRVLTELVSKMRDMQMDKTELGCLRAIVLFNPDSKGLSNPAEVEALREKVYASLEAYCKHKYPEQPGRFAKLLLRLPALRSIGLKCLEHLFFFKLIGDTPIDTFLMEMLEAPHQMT
In the case of B1, the binding signal is 3.09 PBM z-score against 500 random probes.

With B2, the binding signal is 3.11 PBM z-score against 500 random probes.

As to B3, the binding signal is 3.11 PBM z-score against 500 random probes.

For B4, the binding signal was 3.1 PBM z-score against 500 random probes.

For B5, the binding signal was 3.12 PBM z-score against 500 random probes.

For the molecule B6, the binding signal was 3.08 PBM z-score against 500 random probes.

With B7, the binding signal was 3.12 PBM z-score against 500 random probes.

B8: the binding signal was 3.09 PBM z-score against 500 random probes.

On to B9, for which the binding signal was 3.1 PBM z-score against 500 random probes.

Consider B10, for which the binding signal was 3.1 PBM z-score against 500 random probes.

For B11, the binding signal is 3.09 PBM z-score against 500 random probes.

Consider B12, for which the binding signal was 3.1 PBM z-score against 500 random probes.

Regarding B13, the binding signal was 3.13 PBM z-score against 500 random probes.
